# Source: IntAct's records for PubMed 25036637
# B1: BAG family molecular chaperone regulator 4 (Homo sapiens), O95429 (parent)
# chain: MSALRRSGYGPSDGPSYGRYYGPGGGDVPVHPPPPLYPLRPEPPQPPISWRVRGGGPAETTWLGEGGGGDGYYPSGGAWPEPGRAGGSHQEQPPYPSYNSNYWNSTARSRAPYPSTYPVRPELQGQSLNSYTNGAYGPTYPPGPGANTASYSGAYYAPGYTQTSYSTEVPSTYRSSGNSPTPVSRWIYPQQDCQTEAPPLRGQVPGYPPSQNPGMTLPHYPYGDGNRSVPQSGPTVRPQEDAWASPGAYGMGGRYPWPSSAPSAPPGNLYMTESTSPWPSSGSPQSPPSPPVQQPKDSSYPYSQSDQSMNRHNFPCSVHQYESSGTVNNDDSDLLDSQVQYSAEPQLYGNATSDHPNNQDQSSSLPEECVPSDESTPPSIKKIIHVLEKVQYLEQEVEEFVGKKTDKAYWLLEEMLTKELLELDSVETGGQDSVRQARKEAVCKIQAILEKLEKKGL
# partner: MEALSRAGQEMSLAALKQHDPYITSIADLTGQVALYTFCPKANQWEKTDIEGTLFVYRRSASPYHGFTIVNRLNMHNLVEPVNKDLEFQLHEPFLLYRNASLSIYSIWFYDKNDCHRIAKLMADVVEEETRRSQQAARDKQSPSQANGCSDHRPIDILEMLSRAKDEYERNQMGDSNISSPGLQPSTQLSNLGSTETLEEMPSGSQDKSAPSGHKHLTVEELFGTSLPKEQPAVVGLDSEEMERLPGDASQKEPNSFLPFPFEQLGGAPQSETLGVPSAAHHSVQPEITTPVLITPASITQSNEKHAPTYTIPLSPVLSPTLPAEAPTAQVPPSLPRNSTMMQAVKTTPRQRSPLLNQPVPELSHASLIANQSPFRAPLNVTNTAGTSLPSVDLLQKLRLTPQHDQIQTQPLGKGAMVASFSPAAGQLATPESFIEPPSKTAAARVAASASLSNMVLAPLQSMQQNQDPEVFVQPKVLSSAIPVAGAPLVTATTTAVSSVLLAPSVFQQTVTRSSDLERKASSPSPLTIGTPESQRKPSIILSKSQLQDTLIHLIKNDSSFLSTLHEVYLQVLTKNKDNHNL
# Variants of: B1
# Conditions: with dcp1a_human DCP1A
row,effect of a mutation on the interaction,Variant
1,disrupting interaction,MSALRRSGYGPSDGPSYGRYYGPGGGDVPVHPPPPLYPLRPEPPQPPISWRVRGGGPAETTWLGEGGGGDGYYPSGGAWPEPGRAGGSHQEQPPYPSYNSNYWNSTARSRAPYPSTYPVRPELQGQSLNSYTNGAYGPTYPPGPGANTASYSGAYYAPGYTQTSYSTEVPSTYRSSGNSPTPVSRWIYPQQDCQTEAPPLRGQVPGYPPSQNPGMTLPHYPYGDGNRSVPQSGPTVRPQEDAWASPGAYGMGGRYPWPSSAPSAPPGNLYMTESTSPWPSSGSPQSPPSPPVQQPKDSSYPYSQSDQSMNRHNFPCSVHQYESSGTVNNDDSDLLDSQVQYSAEPQLYGNATSDHPNNQDQSSSLPEECVPSDESTPPSIKKIIHVLEKVQYLEQEVEEFVGKKTDKAYWLLEEMLTKELLELASVETGGQDSVRQARKEAVCKIQAILEKLEKKGL [D424A]
